{"source": "paper PMC8004701", "about": "“An Arabidopsis Oxalyl-CoA Decarboxylase, AtOXC, Is Important for Oxalate Catabolism in Plants” (International Journal of Molecular Sciences, 2021)", "target": "the molecule itself", "assay": "SEC; Superdex 200 Increase 10/300 GL, 100 mM sodium phosphate pH 7.5, 100 mM NaCl, 10 mM beta-mercaptoethanol; standards aldolase (158 kDa) and conalbumin (75 kDa); AtOXC eluted at 13.0 mL", "data": [{"protein": "Arabidopsis oxalyl-CoA decarboxylase (AtOXC), His-tagged (enzyme, Arabidopsis thaliana, UniProt Q9LF46 1-572, looked up, Oxalyl-CoA decarboxylase AtOXC, Arabidopsis thaliana, locus At5g17380; full-length cDNA; monomer about 61.5 kDa; No removal of the tag is reported; also called His-AtOXC; His-tagged AtOXC; source: E. coli BLR (DE3), purified (nickel-nitriloacetic acid agarose, desalted on Sephadex G-25)) MADKSETTPPSIDGNVLVAKSLSHLGVTHMFGVVGIPVTSLASRAMALGIRFIAFHNEQSAGYAASAYGYLTGKPGILLTVSGPGCVHGLAGLSNAWVNTWPMVMISGSCDQRDVGRGDFQELDQIEAVKAFSKLSEKAKDVREIPDCVSRVLDRAVSGRPGGCYLDIPTDVLRQKISESEADKLVDEVERSRKEEPIRGSLRSEIESAVSLLRKAERPLIVFGKGAAYSRAEDELKKLVEITGIPFLPTPMGKGLLPDTHEFSATAARSLAIGKCDVALVVGARLNWLLHFGESPKWDKDVKFILVDVSEEEIELRKPHLGIVGDAKTVIGLLNREIKDDPFCLGKSNSWVESISKKAKENGEKMEIQLAKDVVPFNFLTPMRIIRDAILAVEGPSPVVVSEGANTMDVGRSVLVQKEPRTRLDAGTWGTMGVGLGYCIAAAVASPDRLVVAVEGDSGFGFSAMEVETLVRYNLAVVIIVFNNGGVYGGDRRGPEEISGPHKEDPAPTSFVPNAGYHKLIEAFGGKGYIVETPDELKSALAESFAARKPAVVNVIIDPFAGAESGRLQHKN", "values": [{"measurement": "stoichiometry N", "value": 2}]}]}
